# Experimental data taken from patent US11833164B2, “Methods of treating Fabry disease in patients having a mutation in the GLA gene” (Amicus Therapeutics, Inc., priority 2019, dated 2023).
# Test system: mutant form of α-Gal A expressed in HEK-293 cells
# Test: HEK assay (GLP HEK / Migalastat Amenability Assay): α-Gal A activity in lysates of transiently transfected HEK-293 cells incubated with or without 10 μM migalastat
# Format: cell-based, human
# Settings: for Absolute increase (% WT) / Relative increase: 10 μM migalastat versus baseline; for Baseline α-Gal A activity (% WT): absence of migalastat; for Baseline α-Gal A activity (% WT) / 10 μM migalastat α-Gal A activity (% WT): percentage of baseline wild-type α-Gal A activity; for 10 μM migalastat α-Gal A activity: incubated 5 days with 10 μM migalastat; for 10 μM migalastat α-Gal A activity (% WT): with 10 μM migalastat, 5 days
# In short: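 HEK-293 cells transiently transfected with mutant α-Gal A and incubated with or without 10 μM migalastat; lysate activity given as nmol free 4-MU released per mg protein per hour. Values are mean±SEM.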
# [1] = lysates of HEK-293 cells transiently transfected with the mutant form, incubated 5 days in absence of migalastat, mean ± SEM
# [2] = lysates of HEK-293 cells transiently transfected with the mutant form, mean ± SEM
Molecule,Absolute increase (% WT),Relative increase,Baseline α-Gal A activity (% WT) (mean ± SEM),Baseline α-Gal A activity [1] [nmol/mg/h],10 μM migalastat α-Gal A activity [2] [nmol/mg/h],10 μM migalastat α-Gal A activity (% WT) (mean ± SEM),Baseline α-Gal A activity (nmol/mg/hr) [1]
K326T (protein) MQLRNPELHLGCALALRFLALVSWDIPGARALDNGLARTPTMGWLHWERFMCNLDCQEEPDSCISEKLFMEMAELMVSEGWKDAGYEYLCIDDCWMAPQRDSEGRLQADPQRFPHGIRQLANYVHSKGLKLGIYADVGNKTCAGFPGSFGYYDIDAQTFADWGVDLLKFDGCYCDSLENLADGYKHMSLALNRTGRSIVYSCEWPLYMWPFQKPNYTEIRQYCNHWRNFADIDDSWKSIKSILDWTSFNQERIVDVAGPGGWNDPDMLVIGNFGLSWNQQVTQMALWAIMAAPLFMSNDLRHISPQAKALLQDKDVIAINQDPLGTQGYQLRQGDNFEVWERPLSGLAWAVAMINRQEIGGPRSYTIAVASLGKGVACNPACFITQLLPVKRKLGFYEWTSRLRSHINPTGTVLLQLENTMQMSLKDLL,26.4,1.4,69.6 ± 2.4,19442 ± 739,26653 ± 877,96 ± 3.7,
Q327P (protein) MQLRNPELHLGCALALRFLALVSWDIPGARALDNGLARTPTMGWLHWERFMCNLDCQEEPDSCISEKLFMEMAELMVSEGWKDAGYEYLCIDDCWMAPQRDSEGRLQADPQRFPHGIRQLANYVHSKGLKLGIYADVGNKTCAGFPGSFGYYDIDAQTFADWGVDLLKFDGCYCDSLENLADGYKHMSLALNRTGRSIVYSCEWPLYMWPFQKPNYTEIRQYCNHWRNFADIDDSWKSIKSILDWTSFNQERIVDVAGPGGWNDPDMLVIGNFGLSWNQQVTQMALWAIMAAPLFMSNDLRHISPQAKALLQDKDVIAINQDPLGKPGYQLRQGDNFEVWERPLSGLAWAVAMINRQEIGGPRSYTIAVASLGKGVACNPACFITQLLPVKRKLGFYEWTSRLRSHINPTGTVLLQLENTMQMSLKDLL,36.4,2.4,26.2 ± 1.8,7775 ± 561,18612 ± 1075,62.6 ± 3.1,
Y329C (protein) MQLRNPELHLGCALALRFLALVSWDIPGARALDNGLARTPTMGWLHWERFMCNLDCQEEPDSCISEKLFMEMAELMVSEGWKDAGYEYLCIDDCWMAPQRDSEGRLQADPQRFPHGIRQLANYVHSKGLKLGIYADVGNKTCAGFPGSFGYYDIDAQTFADWGVDLLKFDGCYCDSLENLADGYKHMSLALNRTGRSIVYSCEWPLYMWPFQKPNYTEIRQYCNHWRNFADIDDSWKSIKSILDWTSFNQERIVDVAGPGGWNDPDMLVIGNFGLSWNQQVTQMALWAIMAAPLFMSNDLRHISPQAKALLQDKDVIAINQDPLGKQGCQLRQGDNFEVWERPLSGLAWAVAMINRQEIGGPRSYTIAVASLGKGVACNPACFITQLLPVKRKLGFYEWTSRLRSHINPTGTVLLQLENTMQMSLKDLL,7.8,1.3,31.2 ± 1.5,9148 ± 414,11442 ± 480,38.9 ± 1.6,
Q327H (protein) MQLRNPELHLGCALALRFLALVSWDIPGARALDNGLARTPTMGWLHWERFMCNLDCQEEPDSCISEKLFMEMAELMVSEGWKDAGYEYLCIDDCWMAPQRDSEGRLQADPQRFPHGIRQLANYVHSKGLKLGIYADVGNKTCAGFPGSFGYYDIDAQTFADWGVDLLKFDGCYCDSLENLADGYKHMSLALNRTGRSIVYSCEWPLYMWPFQKPNYTEIRQYCNHWRNFADIDDSWKSIKSILDWTSFNQERIVDVAGPGGWNDPDMLVIGNFGLSWNQQVTQMALWAIMAAPLFMSNDLRHISPQAKALLQDKDVIAINQDPLGKHGYQLRQGDNFEVWERPLSGLAWAVAMINRQEIGGPRSYTIAVASLGKGVACNPACFITQLLPVKRKLGFYEWTSRLRSHINPTGTVLLQLENTMQMSLKDLL,7.4,,,,2197 ± 226,7.4 ± 0.7,BLD (“BLD” indicates that the mean α-Gal A activity was below the limit of detection (<142 nmol/mg/hr))
